# Reference: US20200132689
# B1: nicotinamide phosphoribosyltransferase (NAMPT) (protein)
# chain: MNPAAEAEFNILLATDSYKVTHYKQYPPNTSKVYSYFECREKKTENSKLRKVKYEETVFYGLQYILNKYLKGKVVTKEKIQEAKDVYKEHFQDDVFNEKGWNYILEKYDGHLPIEIKAVPEGFVIPRGNVLFTVENTDPECYWLTNWIETILVQSWYPITVATNSREQKKILAKYLLETSGNLDGLEYKLHDFGYRGVSSQETAGIGASAHLVNFKGTDTVAGLALIKKYYGTKDPVPGYSVPAAEHSTITAWGKDHEKDAFEHIVTQFSSVPVSVVSDSYDIYNACEKIWGEDLRHLIVSRSTQAPLIIRPDSGNPLDTVLKVLEILGKKFPVTENSKGYKLLPPYLRVIQGDGVDINTLQEIVEGMKQKMWSIENIAFGSGGGLLQKLTRDLLNCSFKCSYVVTNGLGINVFKDPVADPNKRSKKGRLSLHRTPAGNFVTLEEGKGDLEEYGQDLLHTVFKNGKVTKSYSFDEIRKNAQLNIELEAAHH
# Target: panel of anti-NAMPT murine monoclonal antibodies (mAbs)
protein,measurement,value
B1,NAMPT-induced NFκB phosphorylation,highly efficacious in significantly reducing NAMPT-induced NFκB phosphorylation
